Here are results for 3 molecules from patent US20040053837A1 (LUDWIG INSTITUTE FOR CANCER RESEARCH, published 2004).

The target in test [1] is T1, human PDGF alpha-receptor (human, UniProt P16234 24-1089).
T1 construct: whole, on cells; also called PDGF receptor alpha; PDGFR-alpha
The test can be described thus: self-displacement standard curve, unlabeled PDGF-BB against 125I-PDGF-BB on PAE-1 cells expressing PDGF alpha-receptor. The method, then:
(§1) Next, full length and truncated PDGF-C were tested for their capacity to bind to human PDGF receptors alpha and beta by analyzing their abilities to compete with PDGF-BB for binding to PDGF receptors. The binding experiments were performed on porcine aortic endothelial-1 (PAE-1) cells stably expressing the human PDGF receptors alpha and beta (Eriksson et al., EMBO J, 1992, 11, 543-550). Binding experiments were performed essentially as in Heldin et al. (EMBO J, 1988, 7:1387-1393). Different concentrations of human full-length and truncated PDGF-C, or human PDGF-BB were mixed with 5 ng/ml of ¹²⁵I-PDGF-BB in binding buffer (PBS containing 1 mg/ml of bovine serum albumin). Aliquots were incubated with the receptor expressing PAE-1 cells plated in 24-well culture dishes on ice for 90 minutes. After three washes with binding buffer, cell-bound ¹²⁵I -PDGF-BB was extracted by lysis of cells in 20 mM Tris-HCl, pH 7.5, 10% glycerol, 1% Triton X-100. The amount of cell bound radioactivity was determined in a gamma-counter. A standard curve for the binding of ¹²⁵I-labeled PDGF BB homodimers to PAE-1 cells expressing PDGF alpha-receptor is shown in FIG. 18. An increasing excess of the unlabeled protein added to the incubations competed efficiently with cell association of the radiolabeled tracer.

The target of test [2] is T1, human PDGF alpha-receptor. The test can be described thus: competition with 125I-PDGF-BB on PAE-1 cells expressing human PDGF alpha-receptor. On the procedure:
as §1

For test [3], the target named is T2, human PDGF beta-receptor (human, UniProt P09619 33-1106).
T2 construct: whole, on cells; also called PDGF receptor beta; PDGFR-beta
As to the kind of experiment: direct binding of 125I-labeled truncated PDGF-C to PAE-1 cells expressing PDGF beta receptor. The method, then:
To assess the interactions between truncated PDGF-C and the PDGF alpha and beta receptors, truncated PDGF-C was tested for its capacity to bind to porcine aortic endothelial-1 (PAE-1) cells expressing PDGF alpha or beta receptors, respectively (Eriksson et al., EMBO J, 1992 11:543-550). The binding experiments were performed essentially as described in Heldin et al. (EMBO J, 1988 7:1387-1393). Five micrograms of truncated PDGF-C protein in ten microliters of sodium borate buffer was radiolabeled using the Bolton-Hunter reagent (Amersham) to a specific activity of 4×10⁵ cpm/ng. Different concentrations of radiolabeled truncated PDGF-C, with or without added unlabeled protein, in binding buffer (PBS containing 1 mg/ml of bovine serum albumin) was added to the receptor expressing PAE-1 cells plated in 24-well culture dishes on ice for 90 minutes. After three washes with binding buffer, cell-bound ¹²⁵I-labeled PDGF-C was extracted by lysis of cells in 20 mM Tris-HCl, pH 7.5, 10% glycerol, 1% Triton X-100. The amount of cell-bound radioactivity was determined in a gamma-counter. Non-specific binding was estimated by including a 100-fold molar excess of truncated PDGF-C in some experiments. […] The binding was specific as radiolabeled PDGF-C was quantitatively displaced by a 100-fold molar excess of unlabeled protein.

Test [4] concerns the target T3, VEGFR-2-Ig (human, UniProt P35968 20-764).
T3 construct: extracellular domain; Transiently expressed in 293 EBNA cells and captured on protein A-Sepharose; also called soluble Ig-fusion protein containing the extracellular domain of human VEGFR-2; not shown: Ig part of the fusion
As to the kind of experiment: pull-down of 35S-labelled conditioned medium with receptor-Ig on protein A-Sepharose, SDS-PAGE, phosphorimager. On the procedure: (§2) To assess the interactions between full length and truncated PDGF-C and the VEGF receptors, full length and truncated PDGF-C were tested for their capacity to bind to soluble Ig-fusion proteins containing the extracellular domains of human VEGFR-1, VEGFR-2 and VEGFR-3 (Olofsson et al., Proc. Natl. Acad. Sci. USA, 1998 95:11709-11714). The fusion proteins, designated VEGFR-1-Ig, VEGFR-2-Ig and VEGFR-3-Ig, were transiently expressed in human 293 EBNA cells. All Ig fusion proteins were human VEGFRs. Cells were incubated for 24 hours after transfection, washed with Dulbecco's Modified Eagle Medium (DMEM) containing 0.2% bovine serum albumin and starved for 24 hours. The fusion proteins were then precipitated from the clarified conditioned medium using protein A-Sepharose beads (Pharmacia). The beads were combined with 100 microliters of 10× binding buffer (5% bovine serum albumin, 0.2% Tween 20 and 10 μg/ml heparin) and 900 microliter of conditioned medium from 293 cells that had been transfected with mammalian expression plasmids encoding full length or truncated PDGF-C or control vector, then metabolically labeled with ³⁵S-cysteine and methionine (Promix, Amersham) for 4 to 6 hours. After 2.5 hours, at room temperature, the Sepharose beads were washed 3 times with binding buffer at 4° C., once with phosphate buffered saline and boiled in SDS-PAGE buffer. Labeled proteins that were bound to the Ig-fusion proteins were analyzed by SDS-PAGE under reducing conditions. Radiolabeled proteins were detected using a phosphorimager analyzer.

Test [5] has as its target T4, VEGFR-3-Ig (human, UniProt P35916 25-775).
T4 construct: extracellular domain; Transiently expressed in 293 EBNA cells and captured on protein A-Sepharose; also called soluble Ig-fusion protein containing the extracellular domain of human VEGFR-3; not shown: Ig part of the fusion
T4 sequence (looked up): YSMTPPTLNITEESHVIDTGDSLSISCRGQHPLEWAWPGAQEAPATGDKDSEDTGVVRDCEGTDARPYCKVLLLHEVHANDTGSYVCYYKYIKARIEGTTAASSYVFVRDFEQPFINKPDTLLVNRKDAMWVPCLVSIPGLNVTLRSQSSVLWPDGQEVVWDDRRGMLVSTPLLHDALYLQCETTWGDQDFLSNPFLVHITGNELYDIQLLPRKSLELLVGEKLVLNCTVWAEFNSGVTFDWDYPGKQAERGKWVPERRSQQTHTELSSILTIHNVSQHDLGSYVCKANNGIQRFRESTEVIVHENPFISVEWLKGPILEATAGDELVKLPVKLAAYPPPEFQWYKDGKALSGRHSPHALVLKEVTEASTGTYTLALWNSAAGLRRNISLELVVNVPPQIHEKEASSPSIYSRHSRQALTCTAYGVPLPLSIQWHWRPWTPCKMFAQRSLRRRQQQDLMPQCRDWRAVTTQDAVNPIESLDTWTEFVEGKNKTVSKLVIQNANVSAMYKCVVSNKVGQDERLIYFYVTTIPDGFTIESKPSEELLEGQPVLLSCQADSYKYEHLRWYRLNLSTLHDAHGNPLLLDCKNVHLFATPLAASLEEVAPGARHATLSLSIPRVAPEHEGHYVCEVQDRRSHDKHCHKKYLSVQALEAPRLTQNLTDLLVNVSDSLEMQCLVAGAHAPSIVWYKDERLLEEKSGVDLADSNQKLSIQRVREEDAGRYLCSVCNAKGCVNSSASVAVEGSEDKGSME
Described as above. On the procedure:
as §2

The target in test [6] is T5, VEGFR-1-Ig (human, UniProt P17948 27-758).
T5 construct: extracellular domain; Transiently expressed in 293 EBNA cells and captured on protein A-Sepharose; The construct is cited from Olofsson et al. 1998; also called soluble Ig-fusion protein containing the extracellular domain of human VEGFR-1; not shown: Ig part of the fusion
The description is as above. On the procedure: as §2

T1 sequence (P16234 24-1089): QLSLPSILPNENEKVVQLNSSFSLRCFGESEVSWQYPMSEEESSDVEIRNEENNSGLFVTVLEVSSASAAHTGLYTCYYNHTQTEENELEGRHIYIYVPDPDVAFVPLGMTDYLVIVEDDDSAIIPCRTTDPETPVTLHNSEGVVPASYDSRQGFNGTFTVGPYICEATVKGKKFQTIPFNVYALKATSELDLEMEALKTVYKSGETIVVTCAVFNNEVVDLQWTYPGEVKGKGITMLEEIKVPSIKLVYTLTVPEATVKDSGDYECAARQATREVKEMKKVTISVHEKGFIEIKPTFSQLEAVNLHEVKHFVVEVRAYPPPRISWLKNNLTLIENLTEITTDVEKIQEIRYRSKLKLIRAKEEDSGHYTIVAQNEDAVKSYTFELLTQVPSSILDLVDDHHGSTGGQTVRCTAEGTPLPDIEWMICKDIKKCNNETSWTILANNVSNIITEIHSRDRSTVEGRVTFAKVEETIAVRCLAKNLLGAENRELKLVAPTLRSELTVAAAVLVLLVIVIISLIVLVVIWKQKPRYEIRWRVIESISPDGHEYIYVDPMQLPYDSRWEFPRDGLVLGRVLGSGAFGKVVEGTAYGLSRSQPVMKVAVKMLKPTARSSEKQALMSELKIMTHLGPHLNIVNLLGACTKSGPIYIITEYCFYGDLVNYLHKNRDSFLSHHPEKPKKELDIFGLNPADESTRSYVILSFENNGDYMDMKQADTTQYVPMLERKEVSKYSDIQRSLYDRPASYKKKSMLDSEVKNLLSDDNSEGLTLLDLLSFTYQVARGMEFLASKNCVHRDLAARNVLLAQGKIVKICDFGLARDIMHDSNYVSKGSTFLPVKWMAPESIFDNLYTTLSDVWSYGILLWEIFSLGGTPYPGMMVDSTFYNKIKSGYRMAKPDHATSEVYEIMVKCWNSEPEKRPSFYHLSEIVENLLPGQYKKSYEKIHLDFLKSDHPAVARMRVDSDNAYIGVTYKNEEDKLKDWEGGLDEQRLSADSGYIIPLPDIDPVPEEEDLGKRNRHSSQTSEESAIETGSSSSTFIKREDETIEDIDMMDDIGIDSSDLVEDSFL
T3 sequence (P35968 20-764): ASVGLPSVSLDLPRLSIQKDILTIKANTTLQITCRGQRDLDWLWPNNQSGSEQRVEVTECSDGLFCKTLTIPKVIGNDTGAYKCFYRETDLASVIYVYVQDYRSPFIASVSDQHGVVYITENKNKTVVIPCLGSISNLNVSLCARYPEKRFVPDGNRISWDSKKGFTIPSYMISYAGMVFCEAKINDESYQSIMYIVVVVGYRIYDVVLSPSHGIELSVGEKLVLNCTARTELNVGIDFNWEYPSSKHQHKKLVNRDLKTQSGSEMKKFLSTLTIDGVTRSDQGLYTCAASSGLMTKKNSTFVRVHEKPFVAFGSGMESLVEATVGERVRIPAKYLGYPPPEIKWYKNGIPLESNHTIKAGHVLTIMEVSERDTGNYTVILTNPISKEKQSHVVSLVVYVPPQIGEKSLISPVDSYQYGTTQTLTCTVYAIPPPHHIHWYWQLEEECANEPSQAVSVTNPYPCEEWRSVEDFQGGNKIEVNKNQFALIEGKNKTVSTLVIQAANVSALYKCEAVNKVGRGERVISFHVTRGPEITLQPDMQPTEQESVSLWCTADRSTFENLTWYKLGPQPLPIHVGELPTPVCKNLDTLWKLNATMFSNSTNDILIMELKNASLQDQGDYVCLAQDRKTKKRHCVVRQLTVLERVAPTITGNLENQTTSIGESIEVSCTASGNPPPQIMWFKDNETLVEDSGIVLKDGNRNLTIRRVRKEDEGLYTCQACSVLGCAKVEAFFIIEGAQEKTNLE
T5 sequence (P17948 27-758): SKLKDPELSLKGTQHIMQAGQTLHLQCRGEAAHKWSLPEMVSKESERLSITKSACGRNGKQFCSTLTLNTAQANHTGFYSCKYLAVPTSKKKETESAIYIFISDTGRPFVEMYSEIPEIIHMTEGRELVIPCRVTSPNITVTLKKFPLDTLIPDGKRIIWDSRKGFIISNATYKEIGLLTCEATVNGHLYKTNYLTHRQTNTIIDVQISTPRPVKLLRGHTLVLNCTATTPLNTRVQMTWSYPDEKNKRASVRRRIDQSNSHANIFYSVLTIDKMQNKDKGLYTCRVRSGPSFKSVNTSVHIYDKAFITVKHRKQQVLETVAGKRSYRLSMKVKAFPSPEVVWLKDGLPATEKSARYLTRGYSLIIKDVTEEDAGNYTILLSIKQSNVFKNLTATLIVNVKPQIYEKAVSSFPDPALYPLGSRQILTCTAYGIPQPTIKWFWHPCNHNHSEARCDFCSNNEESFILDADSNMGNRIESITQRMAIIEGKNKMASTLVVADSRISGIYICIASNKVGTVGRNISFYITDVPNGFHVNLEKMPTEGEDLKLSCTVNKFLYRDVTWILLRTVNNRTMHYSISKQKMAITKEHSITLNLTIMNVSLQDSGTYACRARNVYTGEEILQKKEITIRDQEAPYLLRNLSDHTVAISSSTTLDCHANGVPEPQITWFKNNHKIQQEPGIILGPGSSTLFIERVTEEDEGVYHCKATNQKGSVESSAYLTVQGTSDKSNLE
T2 sequence (P09619 33-1106): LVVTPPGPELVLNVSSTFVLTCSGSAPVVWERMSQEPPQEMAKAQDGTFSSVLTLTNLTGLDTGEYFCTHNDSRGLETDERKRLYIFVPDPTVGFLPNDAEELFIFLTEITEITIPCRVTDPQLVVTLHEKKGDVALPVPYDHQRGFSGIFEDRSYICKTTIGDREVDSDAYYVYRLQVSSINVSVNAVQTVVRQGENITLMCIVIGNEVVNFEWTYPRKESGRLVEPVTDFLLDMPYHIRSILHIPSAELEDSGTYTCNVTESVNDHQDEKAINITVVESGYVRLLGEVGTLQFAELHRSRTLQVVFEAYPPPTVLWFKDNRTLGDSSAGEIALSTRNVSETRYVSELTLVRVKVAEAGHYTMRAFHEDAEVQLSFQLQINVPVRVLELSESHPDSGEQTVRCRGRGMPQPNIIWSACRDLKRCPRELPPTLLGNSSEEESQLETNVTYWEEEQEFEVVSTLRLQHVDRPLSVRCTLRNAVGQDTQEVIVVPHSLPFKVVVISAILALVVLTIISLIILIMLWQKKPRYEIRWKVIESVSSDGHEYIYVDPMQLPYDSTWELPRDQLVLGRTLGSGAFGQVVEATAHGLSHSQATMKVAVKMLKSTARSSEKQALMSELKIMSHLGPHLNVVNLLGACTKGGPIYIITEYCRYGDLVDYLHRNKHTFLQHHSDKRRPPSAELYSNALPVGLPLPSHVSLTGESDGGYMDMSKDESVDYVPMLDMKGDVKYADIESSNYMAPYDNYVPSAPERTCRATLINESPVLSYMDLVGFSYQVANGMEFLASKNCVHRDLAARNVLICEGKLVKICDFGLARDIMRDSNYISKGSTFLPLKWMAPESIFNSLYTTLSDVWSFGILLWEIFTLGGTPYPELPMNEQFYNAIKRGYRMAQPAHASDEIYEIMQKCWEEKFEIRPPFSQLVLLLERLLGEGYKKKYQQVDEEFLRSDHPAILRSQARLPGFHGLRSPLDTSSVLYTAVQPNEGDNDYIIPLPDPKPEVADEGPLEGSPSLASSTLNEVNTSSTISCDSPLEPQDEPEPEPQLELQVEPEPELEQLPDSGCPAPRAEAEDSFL

B1: human PDGF-BB homodimer (ligand, UniProt P01127 82-190, looked up)
chain: SLGSLTIAEPAMIAECKTRTEVFEISRRLIDRTNANFLVWPPCVEVQRCSGCCNNRNVQCRPTQVQLRPVQVRKIEIVRKKPIFKKATVTLEDHLACKCETVAAARPVT
modifications: 125I label on the tracer form
notes: also called labeled PDGF-BB
B1: the binding result in test [1] is listed as “binds”.

B2: truncated human PDGF-CC homodimer, PDGF/VEGF homology domain only (core domain, residues 230-345; recombinant, baculovirus-infected Sf9 cells, C-terminal … (ligand, not shown: small tags and cut ends)
chain: GRKSRVVDLNLLTEEVRLYSCTPRNFSVSIREELKRTDTIFWPGCLLVKRCGGNCACCLHNCNECQCVPSKVTKKYHEVLQLRPKTGVRGLHKSLTDVALEHHEECDCVCRGSTGG
notes: Secreted disulfide-bonded dimer (36 kDa non-reduced, 24 kDa monomer); also called cPDGF-CC; truncated PDGF-C
For the molecule B2, the binding result is listed as “binds” in test [2] and “no binding” in test [3].

B3: truncated human PDGF-C expressed in 293 cells from a mammalian expression plasmid (35S-labelled conditioned medium) (ligand)
chain: GRKSRVVDLNLLTEEVRLYSCTPRNFSVSIREELKRTDTIFWPGCLLVKRCGGNCACCLHNCNECQCVPSKVTKKYHEVLQLRPKTGVRGLHKSLTDVALEHHEECDCVCRGSTGG
notes: also called truncated PDGF-C; radiolabeled PDGF-C
In the case of B3, the binding result in test [4], in test [5] and in test [6] was “no binding” throughout.
